Experimental data: the supplement of paper PMC12636428

System: Saccharomyces cerevisiae
Experiment: transcriptional activation domain activity (GFP:mCherry ratio, weighted mean of sorted bins, harmonized to initial dataset scale) (arbitrary fluorescence ratio units); higher = stronger transcriptional activation
Conditions: beta-estradiol 1 µM; induction time 4 h
In short: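 The activation activity of each tile is the read-weighted mean of bin median fluorescence, averaged across its barcodes and mapped linearly onto the scale of the initial dataset. Tiles were fused to an estradiol-inducible synthetic transcription factor, barcoded, and integrated at URA3 in yeast diploids carrying a GFP reporter. Induction used 1 uM beta-estradiol in SC for 4 hours at 30 °C, after which cells were sorted into 8 GFP:mCherry bins, and any tile with fewer than 50 reads was dropped.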

Row | Sequence | transcriptional activation domain activity
1 | MGPPFFDGFSDGSSDLGSLFLPNGDSANWDLSWSAETFWQLENEYTSLPSFFD | 144000
2 | SAASRVAEEKSGDDEAAAAPGTGATPEGVKRKTTRGGKKNRSKKEGGAAAAAA | < 6570
3 | QVPEQVPEQAPEPEKVAEEIVKEEVKKPEEPKAPTPSPAPVAAPRAAAPPAAE | 29500
4 | FANWLGLQKNGMGMRLFPFFIFSLFFLSFFSLFWGFSFFFSFSFFFGFSFFWF | 23100
5 | LLDELMNQTKVLQETLDFSLVTPTPHHNDDYKIHGSAYPGGETPAQQHEKLSY | 35700
6 | MVFGVFFVYVYLSSWVFVLWFFSLSLSHGLAYLSFFPFSFLSFFPSLSLFPPC | 62900
7 | MLIILLSSLVLWRLGSPCFFYTLFLFYISERSISQLPPPPTLLSILFFFTFIA | 53100
8 | LADYMCDYSGSLIGKHFKTLAQIMPFAIQDLVPSSVQAAWLLIGRLVVLLWVT | 52900
9 | GERGRGGEEERRGRGRGRGREEREREKERRERERRRRREEEEERGEEERRGRR | 29400
10 | RLRVLYSAWQLHVDGKVRIGTLAIIGSFKELRYLGGKRTRRCGLVALLLLSAY | 50700
11 | VLFAVAVYMNHVPTAILWMSCVSAKLFSFCSQTFFVIRVYFLPWRFDLVFIPL | 37600
12 | GKGEKDSKDNEKGEGEKKGENRRGRRRGGRGRGGGGDKDKENNKDGGGGRGEK | 30500
13 | MYNNIHIPFFVLFLFFFFLSLFFFFFSLIFFFSFYCILTLCWYAFCLFFLKKN | 34700
14 | MLDVNMSCPFADIRYLLVFSCYFADYLLMLQIWGFCLWLFTLIYMVGGVWLMV | 34300
15 | MIIVLLVKVVVFNLMCKCLMVNVGRCFGEIVSCTFYFWKHILFYYLRSVVTRL | 37700
16 | LQQVCNVLPSFEQSSKIITDFFNTELETNEVSEVLDKTKIINDFTSSFLPSDE | 50400
17 | LLQKVAIQHYHTGLRALIPWSQLTVLVIASIPSQQCVRVLALAVNLLYCEFAI | 67000
18 | YVVLEVGLNVQLDRMAQSDARMVVHALSGGPFIDVVRWVPLRMSSGAFQIGLR | 68300
19 | SDSEEEDDAEKEDEEEEQRPKKTVKVEEVVKKAFGADGATVWVGQLSYEATSD | 32500
20 | SSWIKWVFLFARYFPLLAGLCGRIIDSIVLYKHPIPIPLNALRIWYICQVLII | 59300
21 | EVMKIMPVQKQTRAGQRTRFKAFVVIGDSDGHVGLGVKCAKEVATAIRGAIIL | 55300

Row | Sequence | transcriptional activation domain activity
22 | VVNVLLSVFNGYDTGKSGIRCNPLPNSFIPLIMTAMLLSMLTFLLVTTIACYV | 38300
23 | ESGESEESGRARSRRKRRRREERRGEEGKRRTRAGVRRSKGRKTERASTAGTD | 43100
24 | MGTLLLVFMHYGWTFFLDCCLWWYMMSLGFWYKVCLPLLLLDFHVYCHLWYMI | 53600
25 | VVVKVALLLRWLVMVYDVLDGHTMLSQLYGLLFNCLDMISLRTHICHLLSLLT | 27000
26 | SKHSKKRSSKRARSSSSSSSSSSSEEDDRRRRKRRKEKKRSHKKSHTRRRSRS | 32700
27 | KDEVMKIKPVQKQTTAGQRTRFKAVVIVGDSNGHVGLGIKSAKEVATAIRAAI | 55100
28 | RDDDAEEDKEEVPKKKNRKGQEVGGEAGKRVEEEEEEEAPKRKKKKAKAAAAD | 13400
29 | GPSSSSSLSSSAGMPGTFVLNLGRYGGYYVIHMPVGAQRVLGLVLRRWKTLLF | 60500
30 | MILMIFTYLLLTIPVVVGLIVASLLHFNFIHLNVLYACSLTSLQLINPCMVLF | 50000
31 | AILKCIACHNGAMDSVRLLSVLTVPSGPALAHVHLCLLRYLKNRVISEQFGPS | 21100
32 | ISMEKIGRRAFNKGMKNIDEGPETENDATENSLTTILNDLEGPLEDFSENFID | 34300
33 | AEYDVVLLKRLLYELNGRRNRLMVLPSRLALWEIVMPWVIDLVCRVRFNVTYT | 64600
34 | MSSSPTTGTSQDVQNRTVFTSRRRTAVACTNCRRRKLRCIPARVEEPATGPCA | 35800
35 | FVIGMSICRAAPGLYIYCWKENIFFLEPSYKSAAVVLSWVWFQVFLLLSQQFF | 59200
36 | VTLVKRVDLFWYFVPNSVCWSCVVERSIALDVAERYLGRETNATPPWIRGLLP | 32500
37 | GEKATEAANGEGSGTEGSRRRASGRGRGRGRGRNGRGGARGGRAGDAEEKKEG | 9280
38 | MTYTFDLFSSFLSIVYMPHMATLYFLFFFLLLQCGYFIVLCFFFFHCVLCCFS | 67000
39 | ILFMLFYYLSIYFIGTLGGIWLATYIMSFRENLVIQLVIARVCFIVALGVVMA | 35400
40 | VGPLSLDIILNKYDQDTELCAIVHESRRMLVRFYDIVKQNAMVIYSVFLWIPT | 50900
41 | HLLKWCNFGLLPHWLFHILILVSKSSLNNLIIAYVYCPLFFGCFLPSTYISCN | 58200
42 | EQAEKEAAAEKATPKEAAAKEESPKEESPKEESPEKKEVKKPVKKTPTKKNAK | 27100

Row | Sequence | transcriptional activation domain activity
43 | QDAGGSGDKKGGVYVHCAMGKSRSVTCVVAYLLYRYPHRYGGTAGSSSTAQRR | 45800
44 | WLRPPRWACGRRALLLLSMGLGTVMLLILTGLLTMNQSNGAKLPVVMVFVILF | 32600
45 | ITGTAYLGKFLRNTLGYDLEVFHAELMVKADIFSLNPHEIMNLIVILFHLMLY | 57900
46 | KRCFSLFFFFFFSFLPFLFLFLSPYCLLNTFVPFSFSFLIYLILLLKFNLSAE | 48900
47 | NNTTSLGNAYGVCVMFVTFFDSCMVSLAALIVWRLPYYVVFLPWLVFACLDGV | 52100
48 | IFVLDIIQVRCNYFFFLSFLFIWMRSMFFLCSNRLVALFLFYFSGSTLRVTIM | 51300
49 | NGHGTHCSGTVAGKKYGVAKKANVYAVKVLRSNGSGTMSDVVKGVEEAVKMHN | 37500
50 | RKTGGRSKRTTRGEGKKEEGRSPTKERTTKGARRSKEETRAGGRTSQAEERGK | 33900
51 | VSLLTVIVPIGITCRMVIWICALGMVISSLCVDTILLNKAYKFSFIYIVVRHT | 55300
52 | SDNQPDFVDFQELLDNDTLGNDLLETTAVLKEFELLHDDSVSATATSNEIDLS | 115000
53 | MGNMGTCSFFFFFCWSSFFLCYFCVFPCVLSFQVEGLEAIFLPFTFFPFWFSL | 57300
54 | KSWYFPSLSFFFFSFLFSFLSFAFLSFFLFFSFPFSLLLLYLFLLGLALTADG | 15600
55 | MVRRLINLFLCRPCLLTFLCYLWVFNIFSSASDLYFLFLLSLFGFVFVMGWGS | 38900
56 | QTIPKNQFASRVWTYMDPEVSRHLIDHYLGSIDLSRLELAVLALKCLYSRHTT | 53900
57 | FCRALIHSQGEGPKSIYESSVISLTEAARAIINISRRSFTLHQTLTCRMWYFL | 49900
58 | KISVCWLWGLDSLHLAFCIYMMYWYLITNFCVVAELGCFNIQTFFASKAFVIL | 49800
59 | ASSSTPGAHQPTRRSAGAHRSEEHSVVLHLPPGTHRMKFIVDDRWRVSRELPT | 29000
60 | MVPLRSFPILYALCKVLLFITILLLLIVFVCLGLQHCLLFVGCWLCVQIWCGG | 23300
61 | LQRNILWGMLIFVLAQGLSSTIVVAGFLCTPLSQVWTTPTAIGGPTCINILTF | 61900
62 | GRGVKAGGGPRDREGGERGRERGEEGGEEGARRKEGDSRKEPAGGERREREEG | 33400
63 | QGFMNVTFTNGRKYEALSKQLIFIVHAIFMAANDHVGYILLRALRVYMELDVY | 69900

Row | Sequence | transcriptional activation domain activity
64 | GAGGGITSNGGGKPAAAAEGAKPASEAPKEASKPEGAKPASESPKPEGEKPAA | 27600
65 | FFFFFFFFFFFFFLFLLLSLFFPYLICHRLHLKTQLPHICFIFRLLAASCLST | 46400
66 | IPTPFASHAFNPFDGFLQSLPYHLYAYFIPMHKYLYLSMFVFVNFWTVMIHDG | 50600
67 | LLKPNSCHFLLRNDIVFYKWTYYVAVIINVALRFAWTLNLANLSLNPQLLIFI | 56100
68 | MFWLTLLPSPCFTFFALCYKFFSFLVSIEFFKSCFLPLPTVSPNLLSSLALLL | 63800
69 | KMEESKKRGTKRKSALASDSEEEEEVKPKPIAKPAKPAAKAESSVHVRKGVVL | 17700
70 | NFDWWAKYNCESLRDAVIGFLTRDCLDSRVGYFRSVVRWIGCRLYFGLLIIFF | 72700
71 | MNGGNGFGFWFGVWFWLGIYILSLFFFFFSFSFLLLCVFVSFHSLVFFFFFFS | 53300
72 | AITRLSLVIDALKEGMRYDCDHVLETYQYDVLLVAGYFYLAAILDKSGVDPTA | 52000
73 | MCLLGDGRHPEFFYFLFFIPFDFLLHLLFYPRAFSRYLFIWMGCLNCFYFGLA | 56200
74 | MSSWVYKYQLMFVFVSKVESGGRIWNVIINRLLICVLLMQMLMILTMGLQYRF | 49000
75 | MCFEFHPFSTSMFYLLSILFLDLSFWLSFYFFMSIVHSVALEFLFVFSLNFFV | 42600
76 | PDFYPLFYSRLIPLSVISFLVYTALFFLVFWPQYLFLVIFHGWGAWPTAIILF | 52600
77 | DLSKATKEVKEGGERKAAKGERETEQEKVEEGVKKLAVVDKKGGKNKTETNGS | 17700
78 | LTHEFRMGLIPLGLVALLSSGTTLTLICFICWRLVTWKLHYNTFLGYNQYVLL | 50400
79 | RREERRGEDGHRHRRTRRYSEDEDEEGERRSRGKERGGEERREKRREERRDAG | 16800
80 | LSHSFFSSCCCLLRTLGRFLLFIIFFLSFYFLPFFFSFQTYLLLYLLLIVYFH | 29700
81 | MISLVYTGVDGEFGMLFGFGFWFCFLMGRRFTVFVFVFLDMFWGHVFCFVCIS | 45600
82 | NVLLLGLLGWLIRLVHNSEPTLVLKKLCSTLVTYFTRQSFRWRRCIKHLVCAF | 39900
83 | LSIPLYGLGGPAFSDDDEGEDLIPEHERYIQEAIDGYWVLVLRILVSNRPRKT | 43800
